Test results: the supplement of paper PMC9170038

System: MS2 coat protein
Assay: apparent KD of MS2 coat protein; higher = weaker reporter binding
Details: Eterna round: R107
Method in brief: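 Designed RNA switches were transcribed on-chip from Illumina sequencing clusters. SNAP-549-labelled MS2 coat protein was titrated onto them in twofold steps from 0.7 or 1.5 nM to 3 µM in 100 mM Tris-HCl pH 7.5, 80 mM KCl, 4 mM MgCl2, either without or with constant ligand. Apparent KD reflects the per-design median of normalised cluster binding-curve fits.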

[1] = input ligand: theophylline 20 uM
[2] = input ligand: theophylline 2 mM
[3] = input ligand: tryptophan 2.4 mM

Sequence	apparent KD of MS2 coat protein (input ligand: arginine 13.2 mM)	apparent KD of MS2 coat protein (input ligand: none)	apparent KD of MS2 coat protein [1]	apparent KD of MS2 coat protein [2]	apparent KD of MS2 coat protein [3]
AUGGCGUUGGUGGAGCGGUGAAAUGGCGAUACCAGCGUGGAAACACGCCCUUGGCAGCGCCAAAACAUGAGGAUCACCCAUGUUA [Usti]	18.9 nM	20.3 nM	46 nM	59.8 nM	18.1 nM
AUGUCAUUGGUGCAGCUGUUAAAUGGCGAUACCAGCGUGGAAACACGCCCUUGGCAGCGCCAAAACAUGAGGAUCACCCAUGUUA [Zlin]	23 nM		54.6 nM		27.1 nM
AUGUCGUUGAAUACAGCGGCAUGGAGUGAUACCAGAAUGAUCAAAUUCCCUUGGCAGCAUGACAUGAGGAUCACCCAUGUUCGAU [SSTheo A #15]	34.3 nM		61.3 nM		77.5 nM
AUGUUGGUCUGAAGGAGCGCGAUAACAUGAGGAUCACCCAUGUUAAAUGGUACAUGAUACUCGCAGGUAGGUCGCAGUACGACAA [Same State Arginine B GF 13]	18.6 nM	20.7 nM	29.7 nM	32.2 nM	25.1 nM
AUUAAUAGUUGUGAUACCAGACGAACAUGAGGAUCACCCAUGUAACUUAAGAGUGUUGAUGUCCCUUGGCAGCACUGUUUAGUUA [JR_SSTheophyB_Sub015]	59.5 nM		105 nM		91.5 nM
AUUAAUAGUUGUGAUACCAGACGAACAUGAGGAUCACCCAUGUAACUUUUAGGUGUUGUAGUCCCUUGGCAGCACUAUGUAGUUA [JR_SSTheophyB_Sub013]	31.1 nM		44.5 nM		32.6 nM
AUUAUCAUGGUCAUAUAUAUAUCGUCAGAUACCAGACUAGAUAUAGUCCCUUGGCAGCUGUUACAUGAGGAUCACCCAUGUUAUA [JR_ExcTheophyA_Sub015]	43.5 nM		80.1 nM		88.7 nM
CAACAAGUAACUGAUACCAGUGUACUGACAUGAGGAUCACCCAUGUUGGGUUUUGUUGUACACCCUUGGCAGCAGAAUCUUGUUG [AstrosExyTheB#21]	44.7 nM		67.7 nM		50 nM
CACAUGAGGAUCACCCAUGUCUGAACUGAAGGAGCGCUAAACAAGGCAGGUAGGUCGCGGAAUCCUGUGUGCAUAUGCACACGGG [9.W]	30.6 nM	18 nM	27 nM	26.1 nM	21.5 nM
CACAUGAGGAUCACCCAUGUCUGAACUGAAGGAGCGCUAAAUAAGGCAGGUAGGUCGCGGAAUCCUGUGUGCAUAUGCACACGGG [9.X]	20.7 nM	22.6 nM	30.5 nM	28.9 nM	19.8 nM
CACUAUGAGGUCGAUACCAGUACUGAGUUGUACAUGAGGAUCACCCAUGUAAAUGUUCGCUACCCUUGGCAGCGAUAACAUUGCA [theeternabot_sameState_MS2_Theo_B_34]	73.8 nM		331 nM		246 nM
CAUACUUUAGUAUGACGUGUGGGCAGUGAUACCAGAUACGAAAGUAUCCCUUGGCAGCACAACAUGAGGAUCACCCAUGUAAUUA [Theophylline A 1]	21.9 nM		26.6 nM		23.1 nM
CAUUGUUAGACGGCCGCCACUUUUGGUUCGGAACGAUCGAUUGGACAUGAGGAUCACCCAUGUGGAAGGACCGGGUCUAAUCAAA [theeternabot_sameState_MS2_Trp_B_20]	83 nM	165 nM	328 nM	265 nM	134 nM
CCAUACGUAACUGAUACCAGUGUACUGACAUGAGGAUCACCCAUGUUGGGUUUUGUUGUACACCCUUGGCAGCAGAAUCGUAUGG [AstrosExyTheB#19]	56.5 nM		65.1 nM		65.8 nM
CCCGACGAGCCUGAGAUUAAGUAAGCGGAUACCAGAGAUAGGUAGCUCCCUUGGCAGCCGUGGACAUGAGGAUCACCCAUGUCAC [theeternabot_exclusion_MS2_Theo_A_22]	11.4 nM		13.5 nM		10.9 nM
CCGCCCUACCGCGAUACCAGUACGGCAGUUAACAUGAGGAUCACCCAUGUGCAAACAUAAUACCCUUGGCAGCGCCUGAAUCCAU [theeternabot_sameState_MS2_Theo_B_12]	15.7 nM		29.2 nM		15.6 nM
CGAACAUGAGGAUCACCCAUGUUAACCGAAGGAGCGGCGCAUAAGUCAGGUAGGUCGCGGUAGAUGAAAUAGAGCAGUGGUGACA [#01 Same State - Arginine A]	24.4 nM	31.7 nM	45 nM	32 nM	27 nM
